Measured values published in US20200392230A1 (QLB BIOTHERAPEUTICS, published 2020).
One block for each binder: values may come before it.

Assays:
CD20 = target: T1, CD20 (UniProt P11836 1-297, limits assumed); test: FACS, cell surface binding on Raji cells
T1 construct: whole, on cells; also called CD20 on Raji cells; CD20 on Daudi cells
T1 sequence (looked up): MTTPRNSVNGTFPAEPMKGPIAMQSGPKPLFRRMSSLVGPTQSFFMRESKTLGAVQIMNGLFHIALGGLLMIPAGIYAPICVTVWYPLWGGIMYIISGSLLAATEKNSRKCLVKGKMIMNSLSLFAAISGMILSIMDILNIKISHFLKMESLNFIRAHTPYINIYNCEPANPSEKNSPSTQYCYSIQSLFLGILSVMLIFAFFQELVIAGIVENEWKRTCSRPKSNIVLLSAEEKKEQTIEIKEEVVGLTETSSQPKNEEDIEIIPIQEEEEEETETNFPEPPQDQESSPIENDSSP
Method: (§1) After washing in phosphate buffered saline (PBS), fluorescence conjugated secondary antibodies were added to the cell mixture. The stained cells were analyzed in an LSR II FACS machine (BD Biosciences). Mean fluorescence intensity (MFI) was used to indicate the binding strength of the tested antibodies.

CD3 = target: T2, CD3 (UniProt P07766 23-207); test: FACS, cell surface binding on Jurkat cells (CD3+), fluorescent secondary antibody, MFI
T2 construct: whole, on cells; In the functional assays CD3 stood on engineered effector cells or on T cells of human PBMCs; also called CD3 on Jurkat cells; TCR/CD3 complex
T2 sequence (P07766 23-207): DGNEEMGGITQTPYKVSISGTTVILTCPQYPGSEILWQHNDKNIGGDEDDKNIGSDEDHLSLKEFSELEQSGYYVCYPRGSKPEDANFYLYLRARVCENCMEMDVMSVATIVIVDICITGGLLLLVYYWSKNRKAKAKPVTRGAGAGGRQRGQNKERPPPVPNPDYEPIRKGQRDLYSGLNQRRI
Method: as §1

binding result (CD20): binds
B1: QLB1005-0003 (bispecific antibody)
chain 1: EVQLVESGGGLVQPGGSLKLSCAASGFTFNTYAMNWVRQASGKGLEWVARIRSKYNNYATYYADSVKDRFTISRDDSKNTLYLQMNSLKTEDTAVYYCVRHGNFGNSYVSWFAYWGQGTLVTVSSGGGGSGGGGSGGGGSQAVVTQEPSLTVSPGGTVTLTCRSSTGAVTTSNYANWVQQKPGQAPRGLIGGTNKRAPGVPARFSGSLLGDKAALTLSGAQPEDEAEYYCALWYSNLWVFGTGTKVTVLGGGGSASTKGPSVFPLAPSSKSTSGGTAALGCLVKDYFPEPVTVSWNSGALTSGVHTFPAVLQSSGLYELVSVVTVPSSSLGTQTYICNVNHKPSNTKVDKKVEPKSC
chain 2: QVQLVQSGAEVKKPGASVKVSCKASGYTFTSYNMHWVRQAPGQGLEWIGAIYPGNGDTSYNQKFKGKATLTADKSTSTAYMELSSLRSEDTAVYYCARSTYYGGDWYFNVWGQGTLVTVSSGGGGSGGGGSGGGGSQIVLTQSPATLSLSPGERATLSCRASSSVSYIHWFQQKPGQAPRPWIYATSNLASGVPARFSGSGSGTDYTLTISSLEPEDFAVYYCQQWTSNPPTFGQGTKVEIKGGGGSRTVAAPSVFIFPPSDEQLKSGTASVVCLLNNFYPREAKVQWKVDNALQSGNSQESVTEQDSKDSTYSLLSSLTLSKADYEKHKVYACEVTHQGLSSPVTKSFNRGEC
notes: NCI/NIH CH1-CK stabilized Fab format; the CH1 and CK domains form a heterodimer via a disulphide bond; also called anti-CD3×CD20 BsAb; Fab format (VH-VL-CH1/VH-VL-CK)

EC50 (CD3): 98.2 nM
B2: QLB1005-0002 (bispecific antibody, human IgG1)
chain 1: EVQLVESGGGLVQPGGSLKLSCAASGFTFNTYAMNWVRQASGKGLEWVARIRSKYNNYATYYADSVKDRFTISRDDSKNTLYLQMNSLKTEDTAVYYCVRHGNFGNSYVSWFAYWGQGTLVTVSSGGGGSGGGGSGGGGSQAVVTQEPSLTVSPGGTVTLTCRSSTGAVTTSNYANWVQQKPGQAPRGLIGGTNKRAPGVPARFSGSLLGDKAALTLSGAQPEDEAEYYCALWYSNLWVFGTGTKVTVLGGGGSGGGGSGGGGSPKSCDKTHTCPPCPAPEAAGGPSVFLFPPKPKDTLMISRTPEVTCVVVDVSHEDPEVKFNWYVDGVEVHNAKTKPREEQYNSTYRVVSVLTVLHQDWLNGKEYKCKVSNKALGAPIEKTISKAKGQPREPQVCTLPPSRDELTKNQVSLSCAVKGFYPSDIAVEWESNGQPENNYKTTPPVLDSDGSFFLVSKLTVDKSRWQQGNVFSCSVMHEALHNHYTQKSLSLSPGK
chain 2: not shown
notes: scFv-Fc format with Knob-in-Hole and L234A, L235A (LALA) mutations in a human IgG1 Fc; The text also prints the name as QLB1005-02000; also called QLB1005-02000; QLB-1005-02000

binding result (CD20): binds
B3: QLB1005-0001 (bispecific antibody)
chain 1: QAVVTQEPSLTVSPGGTVTLTCRSSTGAVTTSNYANWVQQKPGQAPRGLIGGTNKRAPGVPARFSGSLLGDKAALTLSGAQPEDEAEYYCALWYSNLWVFGTGTKVTVLGGGGSGGGGSGGGGSEVQLVESGGGLVQPGGSLKLSCAASGFTFNTYAMNWVRQASGKGLEWVARIRSKYNNYATYYADSVKDRFTISRDDSKNTLYLQMNSLKTEDTAVYYCVRHGNFGNSYVSWFAYWGQGTLVTVSSGGGGSASTKGPSVFPLAPSSKSTSGGTAALGCLVKDYFPEPVTVSWNSGALTSGVHTFPAVLQSSGLYELVSVVTVPSSSLGTQTYICNVNHKPSNTKVDKKVEPKSC
chain 2: QIVLTQSPATLSLSPGERATLSCRASSSVSYIHWFQQKPGQAPRPWIYATSNLASGVPARFSGSGSGTDYTLTISSLEPEDFAVYYCQQWTSNPPTFGQGTKVEIKGGGGSGGGGSGGGGSQVQLVQSGAEVKKPGASVKVSCKASGYTFTSYNMHWVRQAPGQGLEWIGAIYPGNGDTSYNQKFKGKATLTADKSTSTAYMELSSLRSEDTAVYYCARSTYYGGDWYFNVWGQGTLVTVSSGGGGSRTVAAPSVFIFPPSDEQLKSGTASVVCLLNNFYPREAKVQWKVDNALQSGNSQESVTEQDSKDSTYSLLSSLTLSKADYEKHKVYACEVTHQGLSSPVTKSFNRGEC
notes: NCI/NIH CH1-CK stabilized Fab format; the CH1 and CK domains form a heterodimer via a disulphide bond; also called anti-CD3×CD20 BsAb; Fab format (VL-VH-CH1/VL-VH-CK)
